This note sets out measurements from article PMC5739296.

The target in the experiment is Villin-1 (human (endogenous in HepG2)) (UniProt P09327). The experiment is described as follows: co-IP.
UniProt P09327, sequence (P09327 whole entry): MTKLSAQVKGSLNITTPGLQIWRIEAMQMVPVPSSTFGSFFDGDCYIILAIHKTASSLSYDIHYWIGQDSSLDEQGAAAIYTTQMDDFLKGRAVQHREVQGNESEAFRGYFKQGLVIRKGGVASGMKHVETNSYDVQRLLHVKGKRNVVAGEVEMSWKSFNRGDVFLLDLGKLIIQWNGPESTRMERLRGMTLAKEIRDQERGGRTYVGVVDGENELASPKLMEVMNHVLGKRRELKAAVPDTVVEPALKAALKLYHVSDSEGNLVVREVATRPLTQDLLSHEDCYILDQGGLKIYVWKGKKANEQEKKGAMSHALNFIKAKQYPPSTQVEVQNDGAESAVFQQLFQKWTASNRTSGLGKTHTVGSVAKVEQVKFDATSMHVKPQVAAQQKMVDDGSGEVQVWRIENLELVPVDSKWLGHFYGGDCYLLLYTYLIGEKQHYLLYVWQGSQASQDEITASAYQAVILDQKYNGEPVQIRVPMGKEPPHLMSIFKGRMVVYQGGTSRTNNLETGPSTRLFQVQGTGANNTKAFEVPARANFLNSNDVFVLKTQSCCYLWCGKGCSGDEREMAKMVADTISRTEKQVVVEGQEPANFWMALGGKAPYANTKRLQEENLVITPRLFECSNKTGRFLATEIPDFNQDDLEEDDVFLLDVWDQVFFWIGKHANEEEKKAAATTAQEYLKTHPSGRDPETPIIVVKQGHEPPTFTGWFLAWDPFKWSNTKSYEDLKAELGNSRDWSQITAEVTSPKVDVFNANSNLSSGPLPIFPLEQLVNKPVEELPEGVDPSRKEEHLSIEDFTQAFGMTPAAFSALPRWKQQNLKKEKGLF

Consider “ß-actin (actin, cytoplasmic 1, ACTB) (from UniProt P60709 1-375) (natural protein)”, for which the fold change of co-precipitated actin after fusion against control worked out at 28.7 fold.
